Data taken from publication PMC7221075.

How the values were obtained:
[1] = molecular target: TMH-iLID membrane anchor (transmembrane helix of E. coli TatA, Val-Leu, Flag peptide, iLID) (Escherichia coli)
[2] = molecular target: TMH-LOV2 V416L membrane anchor (Escherichia coli | Avena sativa)
[3] = molecular target: TMH-LOV2 V416L membrane anchor (Escherichia coli | Avena sativa); remark: listed apart in the source

Row | Substance | light/dark secretion ratio (L/D ratio) of native T3SS substrates, in vitro secretion assay, LITESEC-supp2 (anchor from pACYC184) [1] | light/dark secretion ratio (L/D ratio) of native T3SS substrates, in vitro secretion assay, LITESEC-act2 (anchor from pBAD) [2] | light/dark secretion ratio (L/D ratio) of native T3SS substrates, in vitro secretion assay, LITESEC-act3 (anchor from pACYC184) [2] | secretion efficiency of heterologous cargo expressed from plasmid (YopE1-53-NanoLuc-FLAG), LITESEC-act3, in light [3] [%]
1 | SspB_Nano-SctQ bait fusion protein | 0.26 |  |  | 
2 | Zdk1-SctQ bait fusion protein |  | 2.16 | 4.18 | 50
